Laboratory results from the supplement of paper PMC9170038.

Test system: MS2 coat protein
Assay: apparent KD of MS2 coat protein; designed switch direction (-1 OFF switch, 1 ON switch): 1; higher = weaker reporter binding
Procedure, shortened: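 Normalised cluster fluorescence was curve-fitted, and each design's median over clusters is its apparent KD. Before this, SNAP-549-labelled MS2 coat protein was titrated from 0.7 or 1.5 nM, doubling to 3 µM, over RNA switches transcribed on Illumina chips by stalled E. coli RNA polymerase. Titrations had no input, 200 uM small-molecule ligand, or an oligonucleotide input, and steps lasted 0.8–1.5 h (lowest) to 10–20 min (highest).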

[1] = input ligand: microRNA oligo, concentration not stated
[2] = Eterna round: R95, input ligand: microRNA oligo, concentration not stated

Sequence	apparent KD of MS2 coat protein (input ligand: FMN 200 uM) [nM]	apparent KD of MS2 coat protein [1] [nM]	apparent KD of MS2 coat protein (input ligand: none) [nM]	apparent KD of MS2 coat protein (Eterna round: R95, input ligand: FMN 200 uM) [nM]	apparent KD of MS2 coat protein [2] [nM]	apparent KD of MS2 coat protein (Eterna round: R95, input ligand: none) [nM]
GAGCCAGUCCGAGGAUAUUCACAUGAGGAUCACCCAUGUAGGCUCAGAAAAGAAAAGGAGCCUUGGGAGAAGGCGGACUGGCUC [Xeonanisa<<8] (Eterna round: R96, puzzle: Same State NG 2)	6.35	9.87	13.3			
GAGCCAGUCCGAGGAUAUUCAUAAAUUAAAUACAUGAGGAUCACCCAUGUAGGCAGAGAGCCUUGGGAGAAGGCGGACUGGCUC [Xeonanisa>>3] (Eterna round: R96, puzzle: Same State NG 2)	10.9	25.5	37.3			
GAGGAACAGGCCAACAUGAGGAUCACCCAUGUCCUCGCAUUUCAGGAUAUCUGGAAGAAGAAAAAAGAGAAGGGAAGGUGAAGC [AK SSNG3-V2-34.3] (Eterna round: R96, puzzle: Same State NG 3)	198	140	165			
GAGGGACAGACCAACAUGAGGAUCACCCAUGUCCUCGCAGUUCAGGAUAUCCGGAGGUAGACGAAGGAGAAGGGAAGGUGAACC [AK SSNG3-V2-36] (Eterna round: R96, puzzle: Same State NG 3)	266	382	207			
GAGGGACAGACCAACAUGAGGAUCACCCAUGUCCUCGGAGGUCAGGAUAUCCGGAGGUAGCCGAAGGAGAAGGGACGGUGAACC [AK SSNG3-V2-30.1] (Eterna round: R96, puzzle: Same State NG 3)	322	136	197			
GAGUAGUUGAAAGGAUAUUGAUUGUUAUAGAAUCAAGAAGGUUCUAACAUGAGGAUCACCCAUGUAGGACUAUUCCUGUGUAUC [Parity 78 - Jieux - Same State NG 1] (Eterna round: R96, puzzle: Same State NG 1)		9.15				
GAGUAGUUGGAAGGAUAUCGAUUGUUAUAGAAUCGAGAAGGUCCUAACAUGAGGAUCACCCAUGUAGGACUAUUCCUGUGUAUC [Parity 76 - Jieux - Same State NG 1] (Eterna round: R96, puzzle: Same State NG 1)		8.12				
GAGUAGUUGGGAGGAUAUCGAUUGUUAUAGAAUCGAGAAGGUUCUAACAUGAGGAUCACCCAUGUAGGACUAUUCCUGUGUAUC [Parity 74 - Jieux - Same State NG 1] (Eterna round: R96, puzzle: Same State NG 1)		37.3				
GAGUGGCAGUAAGGAUAUAUAAUGAUAAUCACAGUAGAAGGUACUGACAUGAGGAUCACCCAUGUAGGACUAAACCAGAGAGAG [Parity 43 - Jieux - Same State NG 1] (Eterna round: R96, puzzle: Same State NG 1)	33.8	20.2	20.1			
GAGUGGUAAAGAGGAUAUGCAUUGUUAUUCACUGUAGAAGGUUUUAACAUGAGGAUCACCCAUGUAGGACUAUUCCUGUGUUUC [Parity 63 - Jieux - Same State NG 1] (Eterna round: R96, puzzle: Same State NG 1)	14.4	11.8	17.3			
GAUAAACAUGAGGAUCACCCAUGUAAUAAUAUGGGAGGAUAUCAGAAUGUAUGUAUGUAAUGAGAAGGCCUAAAUG [Mat - Same State 1 - Mod of Eli - D73] (puzzle: Same State 1)				104	425	309
GAUUCACAUGAGGAUCACCCAUGUCGUUAUAUGGGAGGAUAUACGUGGACCGUAGUCCGCGUAGAAGGCCUAAUUG [JL-ss1-3.25 janelle mod] (puzzle: Same State 1)					303	
GCAAUGGCGGUAGGAUAUCUAGGAUAUGGGAAAGACUAAGUCUGUAGGUCACCUAACCCAGAAGGAGAGAAGGACCCUGUAAGG [pwkr ssNG2 2FMN + F9.24] (Eterna round: R96, puzzle: Same State NG 2)	43.2	9.31	30.8			
GCCAUCCAGUGAGGAUAUGGCACCGUUUCGGUGCCAGAAGGCAUGUCAAUUGACAUGAGGAUCACCCAUGUAUUAUGGAUGGCA [JL Fiskers NG1ss - 33 mod 1] (Eterna round: R96, puzzle: Same State NG 1)	96.2	423	1110			
GCCGAACAUGAGGAUCACCCAUGUCUGGGUAAUCAAGGAUAUGGGAAGGCUUUGCCAUGACCAGAAGGUGGUUAUC [Zari] (Eterna round: R96, puzzle: Same State 1)	26.3	38.9	53.5			
GCCGCACAUGAGGAUCACCCAUGUAAUUACAUGGGAGGAUAUCAGUGCUCGAAAGAGCACUGAGAAGGCCUGAGGC [SS1 - Omei A v1] (Eterna round: R96, puzzle: Same State 1)	887	42.4	74.8			
